In the RNAGym collection of RNA variant scans (doi:10.7554/elife.80360) one finds self-cleavage data, which are given here for 57 variants.

B1: Hammerhead Ribozyme (parent)
chain: ACCGGAUGUGCUUUCCGGUCUGAUGAGUCCGUGAGGACGAAACAG

The variants in the data set derive from B1. Kind of data set: self-cleavage, relative activity (ratio to wild type); higher = more cleavage; co-transcriptional.
For the variant ACCGCAUGUGCUAUCCGGUCUGAUGAGUCCGUGAGGACGAAACAG [G5C U13A], the self-cleavage is 1.25. For ACCGCAUGUGCUCUCCGGUCUGAUGAGUCCGUGAGGACGAAACAG [G5C U13C], the self-cleavage was determined as 0.681. On to ACCGCAUGUGCUGUCCGGUCUGAUGAGUCCGUGAGGACGAAACAG [G5C U13G], for which the self-cleavage is 0.85. Regarding ACCGCAUGUGCUUUCCGGUCUGAUGAGUCCGUCAGGACGAAACAG [G5C G33C], the self-cleavage was 0.58. Next, ACCGCAUGUGCUUUCCGGUCUGAUGAGUCCGUAAGGACGAAACAG [G5C G33A]: 0.776; ACCGCAUGUGCUUUCCGGUCUGAUGAGUCCGUUAGGACGAAACAG [G5C G33U]: 0.736.

Take ACCGUAUGUGCUUUCCUGUCUGAUGAGUCCGUGAGGACGAAACAG [G5U G17U]: the self-cleavage was 0.351.

For ACCGUAUGUGCUUUCCCGUCUGAUGAGUCCGUGAGGACGAAACAG [G5U G17C], the self-cleavage worked out at 0.309. For ACCGUAUGUGCUUUCCAGUCUGAUGAGUCCGUGAGGACGAAACAG [G5U G17A], the self-cleavage was found to be 0.337. As to ACCGUAUGUGCUUUCCGGUCUGAUGAGUCCGUGUGGACGAAACAG [G5U A34U], the self-cleavage was 0.83. As for ACCGUAUGUGCUUUCCGGUCUGAUGAGUCCGUGCGGACGAAACAG [G5U A34C], the self-cleavage was found to be 0.833. On to ACCGUAUGUGCUUUCCGGUCUGAUGAGUCCGUGGGGACGAAACAG [G5U A34G], for which the self-cleavage was determined as 0.882.

For the variant ACCGUAUUUGCUUUCCGGUCUGAUGAGUCCGUGAGGACGAAACAG [G5U G8U], the self-cleavage came to 0.81.

With ACCGUAUCUGCUUUCCGGUCUGAUGAGUCCGUGAGGACGAAACAG [G5U G8C], the self-cleavage is 0.942. Next, ACCGUAUAUGCUUUCCGGUCUGAUGAGUCCGUGAGGACGAAACAG [G5U G8A]: 0.748; ACCGUUUGUGCUUUCCGGUCUGAUGAGUCCGUGAGGACGAAACAG [G5U A6U]: 0.63; ACCGUGUGUGCUUUCCGGUCUGAUGAGUCCGUGAGGACGAAACAG [G5U A6G]: 0.644. Consider ACCGUCUGUGCUUUCCGGUCUGAUGAGUCCGUGAGGACGAAACAG [G5U A6C], for which the self-cleavage came to 0.336.

Regarding ACCGUAUGUGUUUUCCGGUCUGAUGAGUCCGUGAGGACGAAACAG [G5U C11U], the self-cleavage was 0.458. ACCGUAUGUGGUUUCCGGUCUGAUGAGUCCGUGAGGACGAAACAG [G5U C11G]: the self-cleavage was found to be 0.815.

ACCGUAUGUGAUUUCCGGUCUGAUGAGUCCGUGAGGACGAAACAG [G5U C11A]: the self-cleavage was 0.919. Next, ACCGUAUGUGCUUUCCGGUCUGAUGCGUCCGUGAGGACGAAACAG [G5U A26C]: 0.357; ACCGUAUGUGCUUUCCGGUCUGAUGGGUCCGUGAGGACGAAACAG [G5U A26G]: 0.332. The value for ACCGUAUGUGCUUUCCGGUCUGAUGUGUCCGUGAGGACGAAACAG [G5U A26U] was 0.449. Next, ACCGUAUGUGCUUUCCGGUCUGAUGAGUCCGUGAGGACGAAACCG [G5U A44C]: 0.515. Take ACCGUAUGUGCUUUCCGGUCUGAUGAGUCCGUGAGGACGAAACUG [G5U A44U]: the self-cleavage was 0.391. The value for ACCGUAUGUGCUUUCCGGUCUGAUGAGUCCGUGAGGACGAAACGG [G5U A44G] was 0.918. As for ACCGCAUGUGCUUUCCGGUCUGAUGAGUCCGCGAGGACGAAACAG [G5C U32C], the self-cleavage came to 0.559. Next, ACCGCAUGUGCUUUCCGGUCUGAUGAGUCCGAGAGGACGAAACAG [G5C U32A]: 0.549. As to ACCGCAUGUGCUUUCCGGUCUGAUGAGUCCGGGAGGACGAAACAG [G5C U32G], the self-cleavage was determined as 0.452. The value for ACCGCACGUGCUUUCCGGUCUGAUGAGUCCGUGAGGACGAAACAG [G5C U7C] was 0.72; that for ACCGCAAGUGCUUUCCGGUCUGAUGAGUCCGUGAGGACGAAACAG [G5C U7A] was 0.874; that for ACCGCAGGUGCUUUCCGGUCUGAUGAGUCCGUGAGGACGAAACAG [G5C U7G] was 0.611. Consider ACCGCAUGUGCUUUCCGGUCUGAUGAGUCCCUGAGGACGAAACAG [G5C G31C], for which the self-cleavage amounted to 0.613. As for ACCGCAUGUGCUUUCCGGUCUGAUGAGUCCUUGAGGACGAAACAG [G5C G31U], the self-cleavage amounted to 1.02. As to ACCGUAUGUGCUUUCCGGUCUGAUGAGUGCGUGAGGACGAAACAG [G5U C29G], the self-cleavage was found to be 0.434. The value for ACCGUAUGUGCUUUCCGGUCUGAUGAGUACGUGAGGACGAAACAG [G5U C29A] was 0.402; that for ACCGUAUGUGCUUUCCGGUCUGAUGAGUUCGUGAGGACGAAACAG [G5U C29U] was 0.682; that for ACCGCAUGUGCUUUCCGGUCUGAUGAGUCCGUGACGACGAAACAG [G5C G35C] was 0.324. Next, ACCGCAUGUGCUUUCCGGUCUGAUGAGUCCGUGAUGACGAAACAG [G5C G35U]: 0.376.

Turning to ACCGCAUGUGCUUUCCGGUCUGAUGAGUCCGUGAAGACGAAACAG [G5C G35A], the self-cleavage is 0.362.

With ACCGCAUGUGCUUUCCGGGCUGAUGAGUCCGUGAGGACGAAACAG [G5C U19G], the self-cleavage came to 0.281. For ACCGCAUGUGCUUUCCGGACUGAUGAGUCCGUGAGGACGAAACAG [G5C U19A], the self-cleavage came out at 0.344. The value for ACCGCAUGUGCUUUCCGGCCUGAUGAGUCCGUGAGGACGAAACAG [G5C U19C] was 0.269; that for ACCGCAUGUGCUUUCCGGUCCGAUGAGUCCGUGAGGACGAAACAG [G5C U21C] was 0.507.

ACCGCAUGUGCUUUCCGGUCAGAUGAGUCCGUGAGGACGAAACAG [G5C U21A]: the self-cleavage worked out at 0.307. The value for ACCGCAUGUGCUUUCCGGUCGGAUGAGUCCGUGAGGACGAAACAG [G5C U21G] was 0.367. The value for ACCGUAUGUGCUUUCGGGUCUGAUGAGUCCGUGAGGACGAAACAG [G5U C16G] was 0.883; that for ACCGUAUGUGCUUUCUGGUCUGAUGAGUCCGUGAGGACGAAACAG [G5U C16U] was 0.894.

As to ACCGUAUGUGCUUUCAGGUCUGAUGAGUCCGUGAGGACGAAACAG [G5U C16A], the self-cleavage is 1.11. The value for ACCGUAUGUGCUUUCCGGUUUGAUGAGUCCGUGAGGACGAAACAG [G5U C20U] was 0.595; that for ACCGUAUGUGCUUUCCGGUAUGAUGAGUCCGUGAGGACGAAACAG [G5U C20A] was 0.292. Consider ACCGUAUGUGCUUUCCGGUGUGAUGAGUCCGUGAGGACGAAACAG [G5U C20G], for which the self-cleavage was found to be 0.333. The value for ACCGCAUGUGCUUUCCGGUCUGAUGAGUCCGUGAGGACUAAACAG [G5C G39U] was 0.251; that for ACCGCAUGUGCUUUCCGGUCUGAUGAGUCCGUGAGGACAAAACAG [G5C G39A] was 0.252. Regarding ACCGCAUGUGCUUUCCGGUCUGAUGAGUCCGUGAGGACCAAACAG [G5C G39C], the self-cleavage stood at 0.312. The value for ACCGCAUGUGCUUUCCGGUCUGAUGAGGCCGUGAGGACGAAACAG [G5C U28G] was 0.345.
